Experimental data as given in paper PMC3963969.

Target: Rad4/Cut5 (UniProt P32372)
Assay: anti-HA IP of Rad9, anti-Rad4 blot
Settings: reference: wild-type Rad9; sites T412

Rad9 (from UniProt P26306) Rad9-T412A
binding against the reference: lost
